From the supplement of paper PMC9170038

Test system: MS2 coat protein
Assay: apparent KD of MS2 coat protein; higher = weaker reporter binding
Settings: Eterna round: R107
Method in brief: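 Apparent KD is reported per design as the median of normalised binding-curve fits across its clusters. The RNA switches were made by on-chip transcription from Illumina sequencing clusters. SNAP-549-labelled MS2 coat protein was then added in twofold steps (0.7 or 1.5 nM to 3 µM; 0.8–1.5 h to 10–20 min per step) in 100 mM Tris-HCl pH 7.5, 80 mM KCl, 4 mM MgCl2, without or with constant ligand.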

[1] = input ligand: theophylline 20 uM
[2] = input ligand: tryptophan 2.4 mM
[3] = input ligand: theophylline 2 mM

| Sequence | apparent KD of MS2 coat protein (input ligand: arginine 13.2 mM) | apparent KD of MS2 coat protein [1] | apparent KD of MS2 coat protein [2] | apparent KD of MS2 coat protein (input ligand: none) | apparent KD of MS2 coat protein [3] |
| --- | --- | --- | --- | --- | --- |
| GAAACGUAGGUGGAGCGGUGAAAUGGCGAUACCAGCGUGGAAACAUGCCCUUGGCAGCGUUAGAACAUGAGGAUCACCCAUGUUU [#22 Exclusion-TheophyllineA] | 12.9 nM | 15.4 nM | 14.9 nM |  |  |
| ACCAGGGUCUGAAGGAGCGCGAUUACAUGAGGAUCACCCAUGUGAAAUGGUAGAUGAUACUCGCAGGUAGGUCGCAGUACUUGGA [Same State Arginine B GF 14] | 53.3 nM | 164 nM | 215 nM | 107 nM | 234 nM |
| ACGUCCCGUUUACUCGUGGGUUAGGUCGAUACCAGUAUUCAAACUUACCCUUGGCAGCGACAUGAGGAUCACCCAUGUGCGAAGA [XTheo A #22] | 19 nM | 22.9 nM | 17.5 nM |  |  |
| GGAUAGGACACGGCCGCCACUAGCUAGGAUACUAGCAACAUUUCCUCACUUGAGGAACACCCAAGUAGGACCGGGUGUCCUAUCG | 122 nM | 724 nM | 740 nM | 517 nM | 1360 nM |
| AUACAUGAGGAUCACCCAUGUUACACUGAAGGAGCGACAUGUUUGUCAGGUAGGUCGCAGUGAAGUUUAAUAAUUCUUUGAUCUU [#06 Same State - Arginine A] | 22.4 nM | 36.4 nM | 23.7 nM | 24 nM | 26.5 nM |
| GUCAGUAGAACAGAUACCAGUCAAAGGCUGUGAUCUCAUAACAUGAGGAUCACCCAUGUUGACCCUUGGCAGCUGUGGGCGAGGG [#20 Exclusion-TheophyllineB] | 26 nM | 77.8 nM | 43.7 nM |  |  |
| UCACAUGAGGAUCACCCAUGUGUCAGAGAAGGAGCGGCCGCAAGGCCAGGUAGGUCGCUCGGGUAUUGUGAGGUUCACCCGUGUG [#1 Exclusion - Arginine A Attempt #12 (Inspired by cyborg)] | 26.7 nM | 57.3 nM | 34.6 nM | 35.8 nM | 44.4 nM |
| GAGUCCACGGCGGCCGCCACUCGCGGCGCCACAUGGCGCCGGGACAUGAGGAUCACCCAUGUCCCGAGGACCGGGCCGAUCCUUA [Same State Typrtophan B GF3] | 11.2 nM | 26.6 nM | 12.9 nM | 21 nM | 31.5 nM |
| ACGCUGAUUGAUUACAAUCAGCGAAAAGAUACCAGUGGGUAAUCCCACCCUUGGCAGCUUAAAUCUGAGGAUCACCCAGGUGGUA [TheoAS 19 #MS2Right #BothOrNeither #AlternativeMS2] | 153 nM | 382 nM | 728 nM | 253 nM | 376 nM |
| CCUAUCCAGUCGGCCGCCACUGAAAACAGUGGGUGAACAUGAGGAUCACCCAUGUCGGAAUACCGCAGGACCGGGACUGUAUAGG [Ex Tryptophan B 23] | 162 nM | 393 nM | 574 nM | 143 nM | 1220 nM |
| UCAAAUGCGGCGGCCGCCACUCGCGGAUAACGAUAGCUUAACAUGAGGAUCACCCAUGUGUCAUGGAGGACCGGGCCCAUAACAU [ttmullin] | 23.4 nM | 35.1 nM | 23.9 nM | 27.2 nM | 37.1 nM |
| UGGUACAUGAGGAUCACCCAUGUUCCAGAUACCAGCGUCCCGGUGCGCCCUUGGCAGCUGGUGGUACAUGAGGAUCACCCAUGUG [Exclusion Theophylline A GF14] | 35.2 nM | 50 nM | 44.9 nM | 40.2 nM | 61.2 nM |
| UAUCGACACUGAAGGAGCGAGAUGACAAACAUGAGGAUCACCCAUGUUAUGGGUUGUUAAUCUCAGGUAGGUCGCAGUGGUCGCA [Same State Arginine B GF 18] | 67.8 nM | 130 nM | 85.7 nM | 93.3 nM | 108 nM |
| AAAUAAAUAACUGAUACCAGUGGACUGACAUGAGGAUCACCCAUGUUGGGUUUUGUUGUCCACCCUUGGCAGCGGGCAUAUAAAA [#25 Exclusion-TheophyllineB] | 23.4 nM | 38.4 nM | 26.8 nM |  |  |
| AUUCAUGGAAACAUGAGAUAUCCUACCGGUCGAGGACCGGUACGGCCGCCACUCGGUUGGUGGCACAUGAGGAUCACCCAUGUUA [SS Tryp A #12] | 77.6 nM | 310 nM |  |  | 378 nM |
| ACGGAUCGGAAACGAUCCGCGGCGAGGGUGCGAGGACCGGUACGGCCGCCACUCGGGUAACAUGAGGAUCACCCAUGUCCGAAGA [ETA NuPACK+Vienna+Vienna2 #10 Same Structure] | 35.8 nM | 60.3 nM | 209 nM | 55 nM | 106 nM |
| UGACAUUGCUCAGAUACCAGACAUGAGGAUCACCCAUGUGCCAAAACGUACUAAAUAAAUGUCCCUUGGCAGCUGAGCAAUGUCU [TheoBX 13 #MS2Left #Theo2] | 13.5 nM | 14.4 nM | 12.9 nM |  |  |
| UUCUACAUGAGGAUCACCCAUGUGGGUGAUACCAGCACUUUUUGGUGCCCUUGGCAGCACAUGAGAAUACCGUACGAUCGGUGAU [Isbiti] | 103 nM | 559 nM | 508 nM |  |  |
| GAAGGAGUUAUGGGUACUCCUUCACUGGAAGGAGCGAGCGAAAGCUCAGGUAGGUCGCCAGAAACAUGAGGAUCACCCAUGUAAU [(A)''-(M)'-(A)'-(Arg1)-(Arg2)-(M1)-(M2)_Design6] | 30.3 nM | 59.5 nM | 41.3 nM | 45.7 nM | 65.3 nM |

| Sequence | apparent KD of MS2 coat protein (input ligand: arginine 13.2 mM) | apparent KD of MS2 coat protein [1] | apparent KD of MS2 coat protein [2] | apparent KD of MS2 coat protein (input ligand: none) | apparent KD of MS2 coat protein [3] |
| --- | --- | --- | --- | --- | --- |
| UAACAUGAGGAUCACCCAUGUUUAGAUGAACGAGGACCGGUACGGCCGCCACUCGAUAAGUGGCAAGAACGAGGGAUUGUAUGCU [Same State Trp A GF3] | 12.7 nM | 22.6 nM | 13.2 nM | 13.8 nM | 11.7 nM |
| GAACAUAAGGAUACUAUAAUAAGUACAGAAGGAGCGAGCGGAAGCUCAGGUAGGUCGCUGGGUAACAUGAGGAUCACCCAUGUUG [SSArg A #14 Road to perfection1] | 23.1 nM | 37 nM | 15.6 nM | 21.4 nM | 37 nM |
| AGUCUUAAUGGAAGGAGCGCAGUCAUAACAUGAGGAUCACCCAUGUCGAGGUGAGGGUCAUUGCAGGUAGGUCGCCAUACUAGGA [Same State - Arginine B (Freestyle 2)] | 84.6 nM | 264 nM | 131 nM | 181 nM | 240 nM |
| UGGCAAGAGGGAAGGAGCGUCAGCAGAGUCACAUGAGGAUCACCCAUGUAGCACGUGGUGUGACAGGUAGGUCGCCCUCUGCCGU [SS-ArgB12] | 24.3 nM | 30.7 nM | 22.1 nM | 15.1 nM | 21.8 nM |
| GCGAUGGAGCGAAGGAGCGGCUGUGACUACAUGAGGAUCACCCAUGUACGAUUGUAAGGUAGCCAGGUAGGUCGCGCUCCAUCGC [SSAB NP+V+V2 #18] | 14 nM | 22.5 nM | 15.8 nM | 16.3 nM | 24.6 nM |
| CCAUAAGUACCGGUCCUCAGAUCCUCAUGACGAGGACCGGUACGGCCGCCACUCGAAACAUGAGGAUCACCCAUGUAAUAAUAUC [Brourdmod17] | 25.5 nM | 53.1 nM |  |  | 66 nM |
| UGUCAGCGAAAGUUGACAUGUUGAACCGGUCGAGGACCGGUACGGCCGCCACUCGAUCUCUCGUACAUGAGGAUCACCCAUGUCG [SS Tryp A #18] | 11.9 nM | 14 nM |  |  | 11.7 nM |
| CAUAUAUAUGGAAGGAGCGCGAUUACAUAACAUGAGGAUCACCCAUGUAAGAAAUUAUUCAUGCAGGUAGGUCGCCAUAUAUAUG [Same State Arginine B GF6] | 29.3 nM | 35.3 nM | 26.6 nM | 24 nM | 27 nM |
| GGGUGGUAGGCGGCCGCCACUGAUUUUUAUUUAUAGAUGACAUGAGGAUCACCCAUGUUUAUGUGCAGGACCGGGCCUGUUGUGG [aaaR] | 12.2 nM | 15.2 nM | 13.9 nM | 16.1 nM | 15.6 nM |
| AGUAGACACGCGGCCGCCACUUGAGGAUCACCCAAGUGGUGUGUACUUGAAAACAAGUGCACAUCAAGGACCGGGCGUGUCUACA [Omei Tryp B SS D v3] | 7.19 nM | 8.01 nM | 8.54 nM | 7.05 nM | 7.12 nM |
| UGUCAGCGAAAGUUGACAUGCAGUGCCGGUCGAGGACCGGUACGGCCGCCACUCGAUCUCUCGUACAUGAGGAUCACCCAUGUCG [SS Tryp A #19] | 14.4 nM | 16.6 nM |  |  | 14.9 nM |
| GUUAGAUCAAAAGAUUUAACAGUGGGUGAACGAGGACCGGUACGGCCGCCACUCGGACAUGAGGAUCACCCAUGUCCAUGUGAAA [AstrosExyTryA#16] | 19.4 nM | 15.2 nM | 43.5 nM | 17.2 nM | 15.9 nM |
| CUAAAUAUAUCGGCCGCCACUUACUCAUGAGGUAACAACAUGAGGAUCACCCAUGUUUGAGGAUCAAGGACCGGGAUAUAUUUAG [AstrosSSTryB#16] | 26.1 nM | 37.2 nM |  |  | 28.9 nM |
| UUAGAUAUGACAGAUACCAGCGUGUUGUAGAACAUGAGGAUCACCCAUGUAGUGAUCGUGCGCCCUUGGCAGCUGGUAUGUUUGG [7.W] | 148 nM | 341 nM | 788 nM |  |  |
| UGCGGACAUGAGGAUCACCCAUGUGCGGAUACCAGCAGCCGGCUCUGCCCUUGGCAGCCGCUACCCUUGCACGUUUAACGAUCCA [theeternabot_sameState_MS2_Theo_A_27] | 31.9 nM | 60.2 nM | 50.1 nM |  |  |
| GCACCAGGUACGGAUACCAGAGCAAGCCAAAUGAGUGAACAUGAGGAUCACCCAUGUUUGCUCCCUUGGCAGCCGUACCUGGUGC [ETB NP+V+V2 #11 +-Same Structure] | 7.91 nM | 12.2 nM | 9.35 nM |  |  |
| AGCGCGGUGAUGGUAGCCGGACGCUAGGUACGAGGACCGGUACGGCCGCCACUCGGAGUCCUACGACAUGAGGAUCACCCAUGUA [Same State Trp A GF16] | 61.2 nM | 106 nM |  |  | 111 nM |
| UCAGUGGGUUCGGCCGCCACUUGAGUGAUGGUGCCUCAAUAAGUCUACAUGAGGAUCACCCAUGUAAGGACCGGGAAUUUUAUGG [theeternabot_exclusion_MS2_Trp_B_19] | 33.3 nM | 59.1 nM |  |  | 43.2 nM |
| UAAUAAUUGUGAUUCUCAGGUCCUCGAUAACGAGGACCGGUACGGCCGCCACUCGAACAUGAGGAUCACCCAUGUAUGAGGACCU [M'-T'-T-MS2-T'' - Design 3] | 13.8 nM | 21 nM | 13.8 nM | 15.9 nM | 19.6 nM |
